Tests used:
Format in all cases: in vivo, rat
[1] = system: wide-dynamic range (WDR) trigeminovascular neurons; experiment: Activation of central trigeminovascular neurons by cortical spreading depression (CSD), WDR neurons
Experimental: Cortical spreading depression (CSD) was induced mechanically by inserting a glass micropipette (tip diameter 25 μm) about 1 mm into the visual cortex for 10 sec. At a propagation rate of 3-5 mm/min, a single wave of CSD was expected to enter the neuronal receptive field within 1-2 min of cortical stimulation. For verification of CSD, cortical activity was recorded (electrocorticogram) with a glass micropipette (0.9% saline, ˜1 megohm, 7 um tip) placed just below the surface of the cerebral cortex (approximately 100 μm). The electrocorticogram electrode was positioned about 6 mm anterior to the visual cortex. […]
The experimental protocol included two parts. […] In the first part, the baseline neuronal profile was established by (a) mapping the dural, cutaneous and corneal receptive field; (b) measuring responses (mean spikes/sec) to mechanical stimulation of the dura (with a fixed force), skin (brush, pressure, pinch) and cornea (brush), and (c) measuring spontaneous firing rate (recorded over 30 min prior to treatment). […] In the second part, CSD was induced 4 hours after administration of CGRP-mAb or isotype-conAb and 2 hours later (i.e., 6 hours after treatment) receptive field size, spontaneous activity rate, and response magnitude to stimulation of the dura, skin and cornea were measured again. […]

[2] = system: naïve high-threshold (HT) trigeminovascular neurons; experiment: Single-unit recording of naïve central trigeminovascular neurons, HT neurons; settings: 30 mg/kg IV
From the text: (§1) Experiments were approved by the Beth Israel Deaconess Medical Center and Harvard Medical School standing committees on animal care, and in accordance with the U.S. National Institutes of Health Guide for the Care and Use of Laboratory Animals. Male and female Sprague-Dawley rats (250-350 g) were anesthetized with urethane (0.9-1.2 g/kg i.p.). They were fitted with an intra-tracheal tube to allow artificial ventilation (0.1 L/min of (O2), and an intra-femoral-vein cannula for later infusion of drugs. Rats were placed in a stereotaxic apparatus, and core temperature was kept at 37° C. using a heating blanket. End-tidal […] was continuously monitored and kept within physiological range (3.5-4.5 pCO2). Once stabilized, rats were paralyzed with rocuronium bromide (10 mg/ml, 1 ml/hr continuous intravenous infusion) and ventilated. For stimulation of the cranial dura later in the experiment, a 5×5-mm opening was carefully carved in the parietal and occipital bones in front and behind the lambda suture, directly above the left transverse sinus. The exposed dura was kept moist using a modified synthetic interstitial fluid (135 mM NaCl, 5 mM KCl, 1 mM MgCl2, 5 mM CaCl2, 10 mM glucose and 10 mM Hepes, pH 7.2). For single-unit recording in the spinal trigeminal nucleus, a segment of the spinal cord between the obex and C2 was uncovered from overlying tissues, stripped of the dura mater, and kept moist with mineral oil.
To record neuronal activity, a tungsten microelectrode (impedance 3-4 MΩ) was lowered repeatedly into the spinal trigeminal nucleus (STN) in search of central trigeminovascular neurons receiving convergent input from the dura and facial skin. Trigeminovascular neurons were first identified based on their responses to electrical stimulation of the dura. […] Dural receptive fields were mapped by indenting the dura (with the 4.19 g VFH monofilament) at points separated by 1 mm mediolaterally and rostrocaudally. Points at which dural indentation produced a response in ≥50% of the trials were considered inside the neurons receptive field. Cutaneous receptive fields were mapped by applying innocuous and noxious mechanical stimulation to all facial skin areas and the cornea. An area was considered outside the receptive field if no stimulus produced a response in ≥50% of the trials. Responses to mechanical stimulation of the skin were determined by applying brief (10 s) innocuous and noxious stimuli to the most sensitive portion of the cutaneous receptive field. Innocuous stimuli consisted of slowly passing a soft bristled brush across the cutaneous receptive field (one 5-s brush stroke from caudal to rostral and one 5-s brush stroke from rostral to caudal) and pressure applied with a loose arterial clip. Noxious stimuli consisted of pinch with a strong arterial clip (Palecek et al., 1992, J. Neurophysiol. 67:1562-1573; Dado et al., 1994, J. Neurophysiol. 71:981-1002; Burstein et al., 1998, J. Neurophysiol. 79:964-982). More intense or prolonged stimuli were not used to avoid inducing prolonged changes in spontaneous neuronal discharge or response properties. […] Real-time waveform discriminator was used to create and store a template for the action potential evoked in the neuron under study by electrical pulses on the dura; spikes of activity matching the template waveform were acquired and analyzed online and offline using Spike 2 software (CED, Cambridge, UK). […]

[3] = system: naïve wide-dynamic range (WDR) trigeminovascular neurons; experiment: Single-unit recording of naïve central trigeminovascular neurons, WDR neurons; settings: 30 mg/kg IV
From the text: as §1, with “For single-unit recording in the spinal trigeminal nucleus, a segment of the spinal cord between the obex and C2 was uncovered from overlying tissues, stripped of the dura mater, and kept moist with mineral oil.” left out
To record neuronal activity, a tungsten microelectrode (impedance 3-4 MΩ) was lowered repeatedly into the spinal trigeminal nucleus (STN) in search of central trigeminovascular neurons receiving convergent input from the dura and facial skin. […] Responses to mechanical stimulation of the skin were determined by applying brief (10 s) innocuous and noxious stimuli to the most sensitive portion of the cutaneous receptive field. […] Real-time waveform discriminator was used to create and store a template for the action potential evoked in the neuron under study by electrical pulses on the dura; spikes of activity matching the template waveform were acquired and analyzed online and offline using Spike 2 software (CED, Cambridge, UK). […]

B1: fremanezumab (antibody)
heavy: EVQLVESGGGLVQPGGSLRLSCAASGFTFSNYWISWVRQAPGKGLEWVAEIRSESDASATHYAEAVKGRFTISRDNAKNSLYLQMNSLRAEDTAVYYCLAYFDYGLAIQNYWGQGTLVTVSSASTKGPSVFPLAPCSRSTSESTAALGCLVKDYFPEPVTVSWNSGALTSGVHTFPAVLQSSGLYSLSSVVTVPSSNFGTQTYTCNVDHKPSNTKVDKTVERKCCVECPPCPAPPVAGPSVFLFPPKPKDTLMISRTPEVTCVVVDVSHEDPEVQFNWYVDGVEVHNAKTKPREEQFNSTFRVVSVLTVVHQDWLNGKEYKCKVSNKGLPSSIEKTISKTKGQPREPQVYTLPPSREEMTKNQVSLTCLVKGFYPSDIAVEWESNGQPENNYKTTPPMLDSDGSFFLYSKLTVDKSRWQQGNVFSCSVMHEALHNHYTQKSLSLSPGK
light: EIVLTQSPATLSLSPGERATLSCKASKRVTTYVSWYQQKPGQAPRLLIYGASNRYLGIPARFSGSGSGTDFTLTISSLEPEDFAVYYCSQSYNYPYTFGQGTKLEIKRTVAAPSVFIFPPSDEQLKSGTASVVCLLNNFYPREAKVQWKVDNALQSGNSQESVTEQDSKDSTYSLSSTLTLSKADYEKHKVYACEVTHQGLSSPVTKSFNRGEC
notes: humanized anti-CGRP antagonist antibody, vectors ATCC PTA-6867 and PTA-6866
[1]; 5/13 versus 4/10
  difference in WDR neurons activated by CSD versus isotype-conAb: 2%
[1]; male and female rats, activated/tested
  WDR neurons activated by CSD (case-by-case analysis): 5/13
[2]; female rats
  spontaneous activity of HT neurons: did not reduce the spontaneous activity
[2]; female rats, p=0.017
  decrease of firing of HT neurons in response to mechanical stimulation of the dura: 61%
[2]; male or female rats
  responses of HT neurons to innocuous (brush, pressure) or noxious (pinch) mechanical stimulation of the skin or the cornea: did not alter the responses
[2]; male rats, p=0.047
  decrease of firing of HT neurons in response to mechanical stimulation of the dura: 75%
[2]; male rats, within 3-4 hrs, p=0.040
  decrease of spontaneous neuronal firing of HT neurons: 90%
[3]; female rats
  spontaneous activity of WDR neurons: did not reduce the spontaneous activity
[3]; male and female rats
  sensitivity of WDR neurons to mechanical stimulation of the dura: not the WDR neurons
[3]; male or female rats
  responses of WDR neurons to innocuous (brush, pressure) or noxious (pinch) mechanical stimulation of the skin or the cornea: did not alter the responses

Source: patent US10766952B2, “Methods for reducing migraine frequency in a subject in need thereof” (Beth Israel Deaconess Medical Center, Inc., priority 2017, dated 2020)
